Consider one substance from publication doi:10.1101/2021.10.03.462214.

This assay addresses human 26S proteasome (human) (UniProt P60900).

Broadly, the Kd is the constant that tells how readily two partners part at equilibrium. The low end stands for tighter binding, the high end for weaker binding. In turn, “K48 linked tetra-ubiquitin chains (from UniProt P0CG47 1-76)” registered a Kd of 0.239 µM.
